According to patent US20140296501:
Where two headings read alike, the source gives them in different places.

Biological target: EGFR (ERBB1) (UniProt P00533)

| Sequence | Kd (N = BndU [n positions 2,8,9,11,15,20,21,23,24,28,29,31,32,33,37,38 = modified dU]) [pM] | Kd (N = BndU (5-benzylaminocarbonyl-2'-deoxyuridine), text prints natural T in the 5' region CCACGCTGGGTGGGTC while listing shows n there [n positions 7,11,15,18,24,25,27,31,36,37,39,40,44,45,47,48,49,53,54 = modified dU]) [pM] |
| --- | --- | --- |
| ATCGAGGTTGTGGGTCGGATTGTTGGATTCTTTAAGTTGGGAACACCAAC [EGFR aptamer SEQ ID NO: 5 (50-mer truncate)] | 526 | – |
| CCACGCTGGGTGGGTCATCGAGGTTGTGGGTCGGATTGTTGGATTCTTTAAGTTGGGAACACCAACCGAGAACG [EGFR aptamer SEQ ID NO: 4] | – | 123 |
